Columns and labels:
p28 subunit of IL-27 = target: T1, p28 subunit of IL-27 (Homo sapiens (Human), UniProt Q8NEV9 29-243, limits assumed); experiment: biochemical affinity and specificity studies
T1 construct: the reagent used in the specificity studies is not described; also called IL-27p28
T1 sequence: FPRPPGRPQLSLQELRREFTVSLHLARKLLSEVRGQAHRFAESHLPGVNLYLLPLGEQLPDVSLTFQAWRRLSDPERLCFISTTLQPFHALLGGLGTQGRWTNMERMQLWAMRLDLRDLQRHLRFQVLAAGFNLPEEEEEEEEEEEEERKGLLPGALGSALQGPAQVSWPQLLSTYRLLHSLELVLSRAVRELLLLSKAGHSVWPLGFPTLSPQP

EBI3 subunit of IL-27 = target: T2, EBI3 subunit of IL-27 (Homo sapiens (Human), UniProt Q14213 21-229, limits assumed); experiment: biochemical affinity and specificity studies
T2 construct: the reagent used in the specificity studies is not described
T2 sequence: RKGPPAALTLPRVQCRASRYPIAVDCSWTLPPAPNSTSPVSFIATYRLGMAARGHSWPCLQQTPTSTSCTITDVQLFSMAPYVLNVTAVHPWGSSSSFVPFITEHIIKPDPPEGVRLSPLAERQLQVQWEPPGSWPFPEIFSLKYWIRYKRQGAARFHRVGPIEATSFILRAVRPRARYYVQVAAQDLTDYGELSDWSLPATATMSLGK

recombinant human IL-27 [1] = target: T3, recombinant human IL-27 (human, UniProt Q14213 21-229; Q8NEV9 29-243); experiment: column 'Affinity hIL-27 (M)', property (i); method not given, paragraph 885 names SPR (BIACORE 2000)
T3 construct: Bought from R&D Systems (Cat. 2526-IL); also called hIL-27; rhIL-27
T3 sequence 1: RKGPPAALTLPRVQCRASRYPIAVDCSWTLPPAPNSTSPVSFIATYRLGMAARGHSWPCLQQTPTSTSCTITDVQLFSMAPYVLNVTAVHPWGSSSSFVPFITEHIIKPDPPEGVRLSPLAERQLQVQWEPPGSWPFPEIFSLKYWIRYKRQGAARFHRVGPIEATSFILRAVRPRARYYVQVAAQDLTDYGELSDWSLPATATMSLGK
T3 sequence 2: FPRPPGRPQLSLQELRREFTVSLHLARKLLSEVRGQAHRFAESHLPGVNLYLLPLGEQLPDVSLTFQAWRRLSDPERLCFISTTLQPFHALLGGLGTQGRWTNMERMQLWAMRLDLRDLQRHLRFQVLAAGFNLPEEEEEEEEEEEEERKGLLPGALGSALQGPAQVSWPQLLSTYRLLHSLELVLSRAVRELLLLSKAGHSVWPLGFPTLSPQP

recombinant mouse IL-27 [2] = target: T4, recombinant mouse IL-27 (mouse, UniProt O35228 19-228; Q8K3I6 29-234, limits assumed); experiment: column 'Affinity mIL-27 (M)'; method not given
T4 construct: also called rodent recombinant IL-27
T4 sequence (looked up) 1: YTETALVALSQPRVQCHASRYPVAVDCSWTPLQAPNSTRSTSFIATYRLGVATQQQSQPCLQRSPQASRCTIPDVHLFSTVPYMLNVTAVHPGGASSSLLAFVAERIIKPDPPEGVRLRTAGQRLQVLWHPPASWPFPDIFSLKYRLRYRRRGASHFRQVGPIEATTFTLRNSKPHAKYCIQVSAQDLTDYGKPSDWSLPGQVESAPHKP
T4 sequence (looked up) 2: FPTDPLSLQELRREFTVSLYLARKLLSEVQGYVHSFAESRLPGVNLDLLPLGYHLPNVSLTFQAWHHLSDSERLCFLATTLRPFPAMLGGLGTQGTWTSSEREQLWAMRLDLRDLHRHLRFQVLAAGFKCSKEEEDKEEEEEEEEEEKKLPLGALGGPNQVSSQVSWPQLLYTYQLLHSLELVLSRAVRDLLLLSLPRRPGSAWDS

recombinant human IL-27 [3] = target: T3, recombinant human IL-27; experiment: SPR (BIACORE 2000) as the paragraph says; values in FIG. 9
[4] = target: T5, recombinant cynomolgus monkey IL-27 (cynomolgus monkey, UniProt A0A2K5WPB7 36-244; A0A2K5UBM6 29-244); experiment: binding kinetics, SRF388 with IL-27 as analyte (instrument not named)
T5 construct: also called nonhuman primate recombinant IL-27
T5 sequence 1: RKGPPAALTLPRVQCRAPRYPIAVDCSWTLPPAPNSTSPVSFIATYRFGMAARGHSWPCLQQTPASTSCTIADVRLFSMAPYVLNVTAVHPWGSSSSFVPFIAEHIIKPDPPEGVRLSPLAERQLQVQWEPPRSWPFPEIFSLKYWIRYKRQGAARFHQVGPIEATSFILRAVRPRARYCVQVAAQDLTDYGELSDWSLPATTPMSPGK
T5 sequence 2: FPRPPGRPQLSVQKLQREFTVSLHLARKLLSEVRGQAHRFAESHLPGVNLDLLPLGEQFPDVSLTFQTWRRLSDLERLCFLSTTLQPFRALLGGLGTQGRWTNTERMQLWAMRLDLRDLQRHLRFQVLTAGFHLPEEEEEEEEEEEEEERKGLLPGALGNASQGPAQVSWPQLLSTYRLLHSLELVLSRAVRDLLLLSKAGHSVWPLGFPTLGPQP

recombinant mouse IL-27 [5] = target: T4, recombinant mouse IL-27; experiment: as above
recombinant rat IL-27 [6] = target: T6, recombinant rat IL-27 (rat, UniProt D3ZPW3 29-234; M0RD76 19-228); experiment: as above
T6 construct: also called rodent recombinant IL-27; copies: 1 + 1
T6 sequence (alpha): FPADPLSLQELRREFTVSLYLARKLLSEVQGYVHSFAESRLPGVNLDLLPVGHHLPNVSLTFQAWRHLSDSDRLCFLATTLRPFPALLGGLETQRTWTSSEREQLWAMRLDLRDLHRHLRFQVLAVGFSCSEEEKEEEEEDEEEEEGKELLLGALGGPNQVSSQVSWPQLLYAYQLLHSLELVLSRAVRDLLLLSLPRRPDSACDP
T6 sequence (beta): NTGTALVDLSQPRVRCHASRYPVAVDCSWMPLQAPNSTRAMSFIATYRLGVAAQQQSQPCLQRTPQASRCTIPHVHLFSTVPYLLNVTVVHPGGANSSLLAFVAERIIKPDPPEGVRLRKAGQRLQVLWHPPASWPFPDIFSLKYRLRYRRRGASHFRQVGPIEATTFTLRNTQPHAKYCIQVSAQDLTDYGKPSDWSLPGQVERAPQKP

recombinant human IL-27 [7] = target: T3, recombinant human IL-27; experiment: binding kinetics, SRF388 at 1 ug/mL, IL-27 as analyte at 0 to 5.0 ug/mL (instrument not named)
Method: The association and dissociation of recombinant human IL-27 at concentrations ranging from 0 to 5.0 μg/mL with an SRF388 concentration of 1 μg/mL were determined.

recombinant human IL-27 [8] = target: T3, recombinant human IL-27; experiment: cell-based or functional assay
[9] = target: T5, recombinant cynomolgus monkey IL-27; experiment: cell-based or functional assay
recombinant mouse IL-27 [10] = target: T4, recombinant mouse IL-27; experiment: cell-based or functional assay
recombinant rat IL-27 [11] = target: T6, recombinant rat IL-27; experiment: cell-based or functional assay
recombinant human IL-27 [12] = target: T3, recombinant human IL-27; experiment: cell-based or functional assay; remark: listed apart in the source

- binding result (p28 subunit of IL-27): binds
- binding result (EBI3 subunit of IL-27): no binding
- Kd (recombinant human IL-27 [1]): 1.3 pM
- Kd (recombinant mouse IL-27 [2]): 0.594 nM
- Kd (recombinant human IL-27 [3]): ≤ 15 nM
- Kd [4]: 0.0374 nM
- koff [4]: 1.19e-05 s⁻¹
- kon [4]: 318000 M⁻¹ s⁻¹
- Kd (recombinant mouse IL-27 [5]): 4.43 nM
- koff (recombinant mouse IL-27 [5]): 0.000244 s⁻¹
- kon (recombinant mouse IL-27 [5]): 55000 M⁻¹ s⁻¹
- Kd (recombinant rat IL-27 [6]): 0.0809 nM
- koff (recombinant rat IL-27 [6]): 0.000189 s⁻¹
- kon (recombinant rat IL-27 [6]): 2.34e+06 M⁻¹ s⁻¹
- Kd (recombinant human IL-27 [7]): 3.86 pM
- koff (recombinant human IL-27 [7]): 1.97e-06 s⁻¹
- kon (recombinant human IL-27 [7]): 510000 M⁻¹ s⁻¹
- IC50 of inhibition of phosphorylation of STAT1 in HUT-78 cells (recombinant human IL-27 [8]): 95 ng/mL
- IC50 of inhibition of phosphorylation of STAT1 in U937 cells (recombinant human IL-27 [8]): 96 ng/mL
- IC50 of inhibition of phosphorylation of STAT1 in pooled human PBMCs (recombinant human IL-27 [8]): 58.3 ng/mL
- Average IC50, pSTAT1 in peripheral blood T cells, cynomolgus monkey whole blood [9]: 118 ng/mL
- Average IC50, pSTAT1 in peripheral blood T cells, mouse whole blood (recombinant mouse IL-27 [10]): 1720 ng/mL
- Average IC50, pSTAT1 in peripheral blood T cells, rat whole blood (recombinant rat IL-27 [11]): 273 ng/mL
- Average IC50, pSTAT1 in peripheral blood T cells, human whole blood (recombinant human IL-27 [12]): 78.4 ng/mL
B1: SRF388 (antibody, V domains shown)
VH: EVQLVESGGGLVKPGGSLRLSCAASGFTFRSYGMNWVRQAPGKGLEWVSGISSSGSYIYYADSVKGRFTISRDNAKNSLYLQMNSLRAEDTAVYYCARDGGRTSYTATAHNWFDPWGQGTLVTVSS
VL: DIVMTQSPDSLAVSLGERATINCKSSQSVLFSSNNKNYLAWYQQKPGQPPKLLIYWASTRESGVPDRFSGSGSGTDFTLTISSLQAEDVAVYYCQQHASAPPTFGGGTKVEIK
notes: also called SRF388-A; SRF388-B
